According to the RNAGym collection of RNA variant scans (doi:10.7554/elife.80360):

B1: HDV Ribozyme (parent)
chain: GGCCGGCAUGGUCCCAGCCUCCUCGCUGGCGCCGGCUGGGCAACAUUCCGAGGGGACCGUCCCCUCGGUAAUGGCGAAUGGGACCCA

Variants of: B1
Test: self-cleavage, relative activity (ratio to wild type); higher = more cleavage; co-transcriptional

Compared with C22G C84A, C22G C84G is higher in self-cleavage: 0.0369 for the first, 0.0923 for the second.

Going from C21G U27C to C22A C86G, the self-cleavage falls from 0.217 to 0.208.

Going from C22A C86A to C21U G52A, the self-cleavage falls from 0.448 to 0.24.

Compared with C22G G50U, C21U C48A is higher in self-cleavage: 0.0297 for the first, 0.302 for the second.

Compared with C21U C48G, C21U C48U is higher in self-cleavage: 0.181 for the first, 0.247 for the second.

Going from C22A G82A to C22A G82C, the self-cleavage falls from 0.0767 to 0.

First: C22A G82U
Second: C22G G53A
The self-cleavage of the first is higher: 0.111 for the first, 0.0779 for the second.

First: C22G G53C
Second: C22G G54C
The self-cleavage of the first is lower: 0 for the first, 0.0277 for the second.

Going from C22G G54A to C22G C61U, the self-cleavage falls from 0.101 to 0.0723.

Going from C22G C61G to C21G U65C, the self-cleavage rises from 0.104 to 0.113.

First: C22A C84U
Second: C22A C84G
The self-cleavage of the first is higher: 0.256 for the first, 0.17 for the second.

Compared with C22A C84A, C22A G31A is higher in self-cleavage: 0.0707 for the first, 0.128 for the second.

Compared with C22A G31C, C22A G31U is higher in self-cleavage: 0 for the first, 0.0594 for the second.

Compared with C21U C66U, C21U C66A is lower in self-cleavage: 0.299 for the first, 0.153 for the second.

First: C21G U46G
Second: C22G G29U
The self-cleavage of the first is lower: 0.0978 for the first, 0.217 for the second.

First: C22G C36A
Second: C22G C36G
The self-cleavage of the first is lower: 0.0773 for the first, 0.123 for the second.

Compared with C22A C32U, C22A G54C is higher in self-cleavage: 0.19 for the first, 0.281 for the second.

Compared with C22A G54U, C22G C48G is lower in self-cleavage: 0.317 for the first, 0.0489 for the second.

First: C22A A56U
Second: C22A C44A
The self-cleavage of the first is higher: 0.323 for the first, 0.151 for the second.

Compared with C22A C44G, C22G U27C is lower in self-cleavage: 0.0489 for the first, 0 for the second.

Going from C22A C66A to C22A C66U, the self-cleavage rises from 0.258 to 0.302.

First: C22G G25C
Second: C22G G25U
The self-cleavage of the first is lower: 0.0665 for the first, 0.102 for the second.

Compared with C22A C30G, C22G U47C is higher in self-cleavage: 0.154 for the first, 0.18 for the second.

Compared with C22G U47A, C22A G34C is lower in self-cleavage: 0.122 for the first, 0.0773 for the second.

Compared with C22A G34A, C22G A71C is higher in self-cleavage: 0.0573 for the first, 0.151 for the second.

Compared with C22G A71G, C22A G29A is lower in self-cleavage: 0.0573 for the first, 0.0297 for the second.

First: C22A G29C
Second: C22G C62G
The self-cleavage of the first is lower: 0.0449 for the first, 0.111 for the second.

Compared with C22G C62A, C21U C22A is lower in self-cleavage: 0.106 for the first, 0.0482 for the second.

Compared with C21U C22G, C22G C30A is higher in self-cleavage: 0.0264 for the first, 0.0652 for the second.

First: C22G C30U
Second: C22G C30G
The self-cleavage of the first is higher: 0.0723 for the first, 0.0437 for the second.

C21U U27A and C21U U27C are the same in self-cleavage: 0.0536 for the first, 0.0536 for the second.

First: C21U G28U
Second: C21U G28A
The self-cleavage of the first is lower: 0 for the first, 0.0791 for the second.

First: C21G G68C
Second: C22A A87U
The self-cleavage of the first is lower: 0.0554 for the first, 0.24 for the second.

First: C22U A45C
Second: C22U A45U
The self-cleavage of the first is lower: 0.113 for the first, 0.325 for the second.

Compared with C22G C75U, C21U U69C is lower in self-cleavage: 0.16 for the first, 0.138 for the second.

First: C22A C33G
Second: C21U C63U
The self-cleavage of the first is lower: 0.213 for the first, 0.341 for the second.

Compared with C21U C63A, C21G U72A is lower in self-cleavage: 0.234 for the first, 0.0723 for the second.

Going from C22G G73U to C22G G73C, the self-cleavage rises from 0 to 0.0845.

Compared with C22G G73A, C21G U79C is lower in self-cleavage: 0.0692 for the first, 0.0244 for the second.

Compared with C21G U79A, C21U G35A is higher in self-cleavage: 0.0875 for the first, 0.108 for the second.

Going from C21U G35U to C21U G35C, the self-cleavage rises from 0.0804 to 0.233.

First: C21U G73U
Second: C21U G73C
The self-cleavage of the first is higher: 0.145 for the first, 0.119 for the second.

Compared with C22A C61A, C22A C61G is lower in self-cleavage: 0.415 for the first, 0.323 for the second.

First: C22A A83U
Second: C22A A83G
The self-cleavage of the first is lower: 0.0678 for the first, 0.14 for the second.

Going from C21U A77C to C22A G35C, the self-cleavage falls from 0.125 to 0.

First: C22A G35U
Second: C22A G35A
The self-cleavage of the first is higher: 0.0791 for the first, 0.0386 for the second.

First: C21U C41G
Second: C22A C26A
The self-cleavage of the first is higher: 0.432 for the first, 0.262 for the second.

Compared with C22A C26G, C22G C66G is lower in self-cleavage: 0.119 for the first, 0.0845 for the second.

Going from C21U U47C to C22A C58A, the self-cleavage falls from 0.271 to 0.203.

First: C22A C58G
Second: C22A C58U
The self-cleavage of the first is higher: 0.38 for the first, 0.332 for the second.

Compared with C21U A43G, C21U A43U is higher in self-cleavage: 0.0898 for the first, 0.13 for the second.

First: C21U C57G
Second: C21U C57A
The self-cleavage of the first is lower: 0.196 for the first, 0.233 for the second.

Compared with C22A G52A, C22A G52U is higher in self-cleavage: 0.292 for the first, 0.32 for the second.

Going from C22G G40U to C22U A70G, the self-cleavage rises from 0.104 to 0.577.

Going from C22U A70U to C22A U27G, the self-cleavage falls from 0.587 to 0.151.

Compared with C21U G80C, C22G C24U is lower in self-cleavage: 0.151 for the first, 0.104 for the second.

First: C22A U69A
Second: C21U U65A
The self-cleavage of the first is lower: 0.284 for the first, 0.293 for the second.

Going from C22U A56C to C22U A56U, the self-cleavage rises from 0.525 to 0.776.

Going from C22A G73U to C22G G80U, the self-cleavage rises from 0.0573 to 0.142.

Going from C22A U46A to C22A U46C, the self-cleavage falls from 0.104 to 0.0692.

First: C22G U23C
Second: C21U U72A
The self-cleavage of the first is lower: 0 for the first, 0.141 for the second.

Going from C21U U72G to C22A A70G, the self-cleavage rises from 0.19 to 0.203.

Compared with C22A A70C, C22G A42G is lower in self-cleavage: 0.17 for the first, 0 for the second.

First: C22G A42C
Second: C21U G40A
The self-cleavage of the first is lower: 0.185 for the first, 0.538 for the second.

Going from C21U G40U to C22A G50C, the self-cleavage rises from 0.0764 to 0.354.

Compared with C22A G50U, C21U A70G is lower in self-cleavage: 0.293 for the first, 0.271 for the second.

First: C21U A70U
Second: C21U A70C
The self-cleavage of the first is lower: 0.228 for the first, 0.332 for the second.

Compared with C21U G25U, C21U C44U is higher in self-cleavage: 0.0811 for the first, 0.62 for the second.

Compared with C21U C44G, C22G C64A is lower in self-cleavage: 0.424 for the first, 0.125 for the second.

First: C22G C64G
Second: C21G U47C
The self-cleavage of the first is higher: 0.0723 for the first, 0 for the second.

Compared with C21G U47G, C22A U65G is higher in self-cleavage: 0.185 for the first, 0.302 for the second.

First: C22U A71G
Second: C22U A71U
The self-cleavage of the first is lower: 0.506 for the first, 0.587 for the second.

Going from C21G G76U to C21U C49A, the self-cleavage rises from 0.0583 to 0.291.

Going from C22G C86G to C22A G68C, the self-cleavage rises from 0.0779 to 0.22.

First: C22A G68U
Second: C22G C32G
The self-cleavage of the first is higher: 0.212 for the first, 0 for the second.

Going from C22G C32U to C22G C32A, the self-cleavage falls from 0.0707 to 0.

First: C22A G55A
Second: C22G U69G
The self-cleavage of the first is higher: 0.284 for the first, 0.108 for the second.

Going from C21G U60A to C22G A77U, the self-cleavage falls from 0.253 to 0.162.

Compared with C22G A77G, C21U G82A is higher in self-cleavage: 0.0504 for the first, 0.0906 for the second.

First: C21U G82U
Second: C21U G82C
The self-cleavage of the first is lower: 0.115 for the first, 0.181 for the second.

Compared with C22G C41U, C22G G31U is lower in self-cleavage: 0.0656 for the first, 0.0361 for the second.

First: C22G G76U
Second: C22G G76C
The self-cleavage of the first is lower: 0.089 for the first, 0.151 for the second.

Compared with C22A A45C, C22A A45U is higher in self-cleavage: 0.115 for the first, 0.233 for the second.

C21U A87C showed a self-cleavage of 0.206.
